Positions count from the first letter of the chain named. Like-named read-outs stand apart in the source and are kept apart here.
Assays:
AE.A244 V1V2 Tags [1] = biological target: AE.A244 V1V2 Tags (HIV-1); test: ELISA
[2] = biological target: T1, gp70 B.CaseA2 V1/V2/V169K (HIV-1 V1V2 on murine leukemia virus gp70); test: ELISA
T1 chain: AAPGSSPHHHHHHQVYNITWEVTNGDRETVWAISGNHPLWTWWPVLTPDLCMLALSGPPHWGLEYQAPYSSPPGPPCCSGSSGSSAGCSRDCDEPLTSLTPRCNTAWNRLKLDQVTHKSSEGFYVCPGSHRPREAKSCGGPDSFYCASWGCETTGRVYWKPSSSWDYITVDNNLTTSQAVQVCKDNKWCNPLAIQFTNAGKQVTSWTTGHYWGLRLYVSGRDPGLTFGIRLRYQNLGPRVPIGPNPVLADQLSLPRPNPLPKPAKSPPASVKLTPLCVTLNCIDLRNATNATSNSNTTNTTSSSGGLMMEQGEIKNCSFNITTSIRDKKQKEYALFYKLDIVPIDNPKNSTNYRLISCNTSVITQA

[3] = biological target: T2, gp70 B.CaseA2 V1/V2/V169K/E172V/E173H (HIV-1 V1V2 on murine leukemia virus gp70); test: ELISA
T2 construct: also called gp70 B.CaseA2 V1/V2 Mut3
T2 chain: T1 chain with E332V, Y333H

AE.A244 V1V2 Tags [4] = biological target: AE.A244 V1V2 Tags (HIV-1); test: ELISA; remark: listed apart in the source
AE.A244 gp120 delta 11 [5] = biological target: T3, AE.A244 gp120 delta 11 (HIV-1); test: ELISA
T3 construct: also called E.A244gp120Δ11; AE.A244 Δ11 gp120

gp70 C.1086 V1/V2 [6] = biological target: T4, gp70 C.1086 V1/V2 (HIV-1 V1V2 on murine leukemia virus gp70); test: ELISA
T4 construct: also called C.gp70 1086C V1V2; C.1086gp70V1V2
T4 chain: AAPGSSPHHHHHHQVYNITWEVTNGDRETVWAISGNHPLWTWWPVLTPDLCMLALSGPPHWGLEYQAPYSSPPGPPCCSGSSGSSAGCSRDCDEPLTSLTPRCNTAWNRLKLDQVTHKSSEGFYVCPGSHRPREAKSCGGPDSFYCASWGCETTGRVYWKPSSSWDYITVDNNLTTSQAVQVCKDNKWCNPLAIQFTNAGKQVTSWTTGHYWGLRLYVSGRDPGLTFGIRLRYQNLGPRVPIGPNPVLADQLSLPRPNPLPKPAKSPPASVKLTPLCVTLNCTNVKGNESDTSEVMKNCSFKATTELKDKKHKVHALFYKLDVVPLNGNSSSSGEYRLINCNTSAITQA

C.1086 V1V2 Tags [7] = biological target: C.1086 V1V2 Tags (HIV-1); test: ELISA
AE.A244 V1V2 Tags [8] = biological target: AE.A244 V1V2 Tags (HIV-1); test: ELISA; remark: listed apart in the source
AE.A244 gp120 delta 11 [9] = biological target: T3, AE.A244 gp120 delta 11; test: ELISA; remark: listed apart in the source
gp70 C.1086 V1/V2 [10] = biological target: T4, gp70 C.1086 V1/V2; test: ELISA
C.1086 V1V2 Tags [11] = biological target: C.1086 V1V2 Tags (HIV-1); test: ELISA; remark: listed apart in the source
[12] = biological target: Env of 92TH023 K169Q virus (HIV-1); test: cell-based or functional assay
Env of 703357.c02 virus = Env of 703357.c02 virus (HIV-1); test: cell-based or functional assay
[13] = biological target: Env of CM244NW.6.I181L virus (HIV-1); test: cell-based or functional assay
[14] = biological target: Env of 703357.2.Q169KI181L virus (HIV-1); test: cell-based or functional assay
[15] = biological target: Env of 427299.c12.H81L virus (HIV-1); test: cell-based or functional assay
[16] = biological target: Env of 703357.2.Q169KR170Q virus (HIV-1); test: cell-based or functional assay
[17] = biological target: Env of 703357.2.Q169KR170QI181L virus (HIV-1); test: cell-based or functional assay
Env of 427299.c12 virus = Env of 427299.c12 virus (HIV-1); test: cell-based or functional assay
[18] = biological target: Env of TH023.6.I181L virus (HIV-1); test: cell-based or functional assay
[19] = biological target: Env of CM244NW.4.K169Q virus (HIV-1); test: cell-based or functional assay
Env of AE.CM244 virus = Env of AE.CM244 virus (HIV-1); test: cell-based or functional assay
[20] = biological target: Env of 703357.2.Q169K virus (HIV-1); test: cell-based or functional assay
[21] = biological target: Env of 703357.2.I181L virus (HIV-1); test: cell-based or functional assay
[22] = biological target: Env of 427299.c12.KL.Q169K/I181L virus (HIV-1); test: cell-based or functional assay
Env of AE.92TH023 virus = Env of AE.92TH023 virus (HIV-1); test: cell-based or functional assay
[23] = biological target: Env of 427299.c12.Q169K virus (HIV-1); test: cell-based or functional assay
[24] = biological target: T5, AE.A244 V1/V2 Tags N156QN160Q (HIV-1); test: ELISA; markers as in the legend printed on D00157
T5 chain: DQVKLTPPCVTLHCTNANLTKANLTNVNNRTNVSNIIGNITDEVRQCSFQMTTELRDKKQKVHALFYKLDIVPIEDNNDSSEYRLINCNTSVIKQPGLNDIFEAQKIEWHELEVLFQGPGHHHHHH

B1: 697D (antibody, V domains shown)
VH: QVQLVQSGAEVKKPGSSVKVSCKASGGNFNTYTISWVRQAPGQGLEWMGRIIPIFGIVNPAQKFPGRVTINVDKSTNTAYMELSSLRSEDTAVYYCATSGVGLHFGYFDYWGQGTQVTVSS
VL: QSVLTQPPSVSGAPGQRVTISCTGSSSNIGAHYDVHWYQQLPGTAPKLLIYGNSNRPSGVPDRFSGSKSGTSASLAITGLQAEDEADYYCQSYDSSLSGYVFGTGTKVTVL
notes: also called mAb 697D; V2 conformational mAb 697D
For B1, the EC50 (AE.A244 V1V2 Tags [1]) was 0.6 nM, the EC50 [2] was 0.14 µg/mL and the EC50 [3] was 0.04 µg/mL. The EC50 (AE.A244 V1V2 Tags [4]) was 0.1 nM, the EC50 (AE.A244 gp120 delta 11 [5]) was 0.23 nM and the EC50 (gp70 C.1086 V1/V2 [6]) was 0.067 nM. The EC50 (C.1086 V1V2 Tags [7]) was 0.23 nM, the EC50 (AE.A244 V1V2 Tags [8]) was 0.1 nM and the EC50 (AE.A244 gp120 delta 11 [9]) was 0.23 nM. The EC50 (gp70 C.1086 V1/V2 [10]) was 0.067 nM and the EC50 (C.1086 V1V2 Tags [11]) was 0.23 nM.

B2: 697D reverted unmutated ancestor antibody (antibody, V domains shown)
VH: QVQLVQSGAEVKKPGSSVKVSCKASGGTFSSYTISWVRQAPGQGLEWMGRIIPILGIANYAQKFQGRVTITADKSTSTAYMELSSLRSEDTAVYYCATSGVGLHFGYFDYWGQGTLVTVSS
VL: B1 VL with H32G
notes: also called 697D RUA
In the case of B2, the EC50 (AE.A244 gp120 delta 11 [5]) is reported as > 667 nM and the EC50 (AE.A244 gp120 delta 11 [9]) is reported as > 667 nM.

B3: CH59 reverted unmutated ancestor antibody (antibody, V domains shown)
VH: EVQLVESGGGLVQPGRSLRLSCAASGFTFDDYAMHWVRQAPGKGLEWVSGISWNSGSIGYADSVKGRFTISRDNAKNSLYLQMNSLRAEDTALYYCAKDSPRGELPFDYWGQGTLVTVSS
VL: SYELTQPPSVSVSPGQTARITCSGDALPKKYAYWYQQKSGQAPVLVIYEDSKRPSGIPERFSGSSSGTMATLTISGAQVEDEADYYCYSTDSSGNHRVFGGGTKLTVL
notes: also called CH59 RUA; CH59_RUA
With B3 the “ID50 assayed in TZM-bl cells, TH023.6.K169Q” value [12] was > 50 µg/mL, the “ID50 assayed in TZM-bl cells, 703357.c02” value (Env of 703357.c02 virus) was > 50 µg/mL and the “ID50 assayed in TZM-bl cells, CM244NW.6.I181L” value [13] was > 50 µg/mL. For the same binder, the “ID50 assayed in TZM-bl cells, 703357.2.Q169KI181L” value [14] was > 50 µg/mL, the “ID50 assayed in TZM-bl cells, 427299.c12.H81L” value [15] was > 50 µg/mL and the “ID50 assayed in TZM-bl cells, 703357.2.Q169KR170Q” value [16] was > 50 µg/mL. For the same binder, the “ID50 assayed in TZM-bl cells, 703357.2.Q169KR170QI181L” value [17] was > 50 µg/mL, the “ID50 assayed in TZM-bl cells, 427299.c12” value (Env of 427299.c12 virus) was > 50 µg/mL and the “ID50 assayed in TZM-bl cells, TH023.6.I181L” value [18] was > 50 µg/mL. The “ID50 assayed in TZM-bl cells, CM244NW.4.K169Q” value [19] was > 50 µg/mL, the “ID50 assayed in TZM-bl cells, CM244.ec1” value (Env of AE.CM244 virus) was > 50 µg/mL and the “ID50 assayed in TZM-bl cells, 703357.2.Q169K” value [20] was > 50 µg/mL. For the same binder, the “ID50 assayed in TZM-bl cells, 703357.2.I181L” value [21] was > 50 µg/mL, the “ID50 assayed in TZM-bl cells, 427299.c12.KL.Q169K/I181L” value [22] was > 50 µg/mL and the “ID50 assayed in TZM-bl cells, TH023.6” value (Env of AE.92TH023 virus) was > 50 µg/mL. For the same binder, the “ID50 assayed in TZM-bl cells, 427299.c12.Q169K” value [23] was > 50 µg/mL, the “EC50 (read off the curve)” value [24] was ~0.4 µg/mL and the EC50 (AE.A244 V1V2 Tags [4]) was 0.13 nM. The EC50 (AE.A244 gp120 delta 11 [5]) was 15.5 nM, the EC50 (gp70 C.1086 V1/V2 [6]) was 11.3 nM and the EC50 (C.1086 V1V2 Tags [7]) was 50.1 nM. It also gave an EC50 (AE.A244 V1V2 Tags [8]) of 0.13 nM, an EC50 (AE.A244 gp120 delta 11 [9]) of 15.5 nM and an EC50 (gp70 C.1086 V1/V2 [10]) of 11.3 nM. For the same binder, the EC50 (C.1086 V1V2 Tags [11]) was 50.1 nM.
